From publication PMC2916699 (Journal of molecular biology, 2009) come the findings set out here.

Where no end group is shown, it is not given here. The star is where a group is joined. Dansyl = CN(C)c1cccc2c(S(=O)(=O)*)cccc12

The assay concerns the target protein farnesyltransferase (FTase), wild type (UniProt Q04631 1-377; Q02293 1-437). In words: fluorescence polarisation. On the technique in general: Fluorescence polarisation rises when a labelled molecule tumbles more slowly, as on binding a larger partner.
Usually Kd stands for the concentration at which binding is half-saturated. Higher therefore signals weaker binding. Dansyl-TKCLTS [dansyl-TKCLTS] registered a Kd of 5 ± 1 nM.

Dansyl-TKCSLM [dansyl-TKCSLM] had a dissociation constant Kd of 8 ± 2 nM.

Dansyl-TKCTLQ [dansyl-TKCTLQ] had a Kd of 7 ± 1 nM.

In turn, Dansyl-TKCGIM [dansyl-TKCGIM] returned a Kd of 3.6 ± 0.7 nM.

Molecule Dansyl-TKCSLC (cysteine pairing not given here) [dansyl-TKCSLC] gave an equilibrium dissociation constant (Kd) of 5 ± 2 nM.

Dansyl-TKCSLG [dansyl-TKCSLG]: binding was characterised by a dissociation constant (Kd) of 3.4 ± 0.7 nM.

The molecule Dansyl-TKCNIM [dansyl-TKCNIM] showed a Kd of 5 ± 1 nM.

Dansyl-TKCSIM [dansyl-TKCSIM] had a Kd of 6 ± 2 nM.

Consider Dansyl-TKCYVM [dansyl-TKCYVM], for which the affinity, expressed as Kd, was 12 ± 4 nM.

As for Dansyl-TKCNLQ [dansyl-TKCNLQ], binding was put at a Kd of 8 ± 1 nM.

Dansyl-TKCSIS [dansyl-TKCSIS] registered a Kd of 3.4 ± 0.8 nM.

Dansyl-TKCRIS [dansyl-TKCRIS] yielded a Kd of 12 ± 2 nM.

For Dansyl-TKCLVM [dansyl-TKCLVM], the affinity, expressed as Kd, was 6 ± 2 nM.

Molecule Dansyl-TKCTMS [dansyl-TKCTMS] displayed a Kd of 6 ± 2 nM.

Molecule Dansyl-TKCITQ [dansyl-TKCITQ] returned a Kd of 3.6 ± 0.8 nM.

Molecule Dansyl-TKCVVT [dansyl-TKCVVT] came in with a Kd of 7 ± 3 nM.

Regarding Dansyl-TKCAVQ [dansyl-TKCAVQ], the equilibrium dissociation constant (Kd) was 13 ± 3 nM.

Dansyl-TKCTKF [dansyl-TKCTKF] registered a Kd of 6 ± 1 nM.

The molecule Dansyl-TKCIVA [dansyl-TKCIVA] returned a dissociation constant Kd of 5 ± 2 nM.
